Data reported in the supplement of paper PMC9732359.
± gives the uncertainty stated by the source.

Assay: protein stability index of a GFP-peptide fusion (yeast GPS) (PSI 1-4); higher = more stable; sorted into four equal gates, so the index is relative within each strain
Summary of the method: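 Tiled 17-residue yeast protein peptides were fused downstream of GFP in a plasmid that also expresses Cherry, and the pooled library was carried in yeast. Mid-log cultures in leucine-free medium were sorted into four equal gates by GFP/Cherry fluorescence ratio, and plasmids from each gate were PCR-amplified and Illumina-sequenced, with reads assigned to strains by barcodes. The protein stability index for each peptide was each gate's read frequency times its gate number, summed.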

Sequence	protein stability index (doa10∆)	protein stability index (pdr5∆)	protein stability index (san1∆)	protein stability index (ubr1∆)
IVQAKEPNLAAQQDSTN [ECM29]	2.51 ± 0.11	2.88 ± 0.054	2.69 ± 0.1	2.75 ± 0.063
TMTISHLLLGFQVSNVI [YJL039C/NUP192]	1.41 ± 0.038	1.72 ± 0.039	1.75 ± 0.06	1.77 ± 0.034
KASRKSVGLPSKVASSL [ECM29]	2.81 ± 0.055	2.79 ± 0.066	2.69 ± 0.056	2.84 ± 0.052
QHLQQLKMQQQQQQQQQ [GAL11]	2.21 ± 0.077	2.23 ± 0.059	2.02 ± 0.12	2.09 ± 0.061
ESTSSTEEVEALLQRLK [MTW1]				3.23 ± 0.19
PGRLDRKIEFPSLRDRR [RPT3]	3.35 ± 0.044	3.31 ± 0.061	3.23 ± 0.048	3.23 ± 0.039
FPPNLEKGENPSCVYNL [UBP6]	2.79 ± 0.1	1.7 ± 0.088	1.15 ± 0.16	1.11 ± 0.064
RGNIKVMFATNRPNTLD [RPT1]	2.91 ± 0.079	3.05 ± 0.088	3.02 ± 0.063	2.98 ± 0.085
SDGQSRVKDIHLRKLLD [RET1]	2.88 ± 0.061	2.98 ± 0.067	3.11 ± 0.068	2.99 ± 0.043
NATANATANATANATAE [SNF11]	3.15 ± 0.04	3.33 ± 0.042	3.18 ± 0.042	3.325 ± 0.03
MDSIIPAGVKLDDLQVI [PGD1]	2.5 ± 0.093	3.05 ± 0.091	2.57 ± 0.061	2.52 ± 0.056
AAPAATSAASGDAAPAE [RPP0]	2.6 ± 0.091	2.38 ± 0.049	1.6 ± 0.1	2.42 ± 0.063
MVGQQYSSAPLRTVKEV [RPO21]		1.92 ± 0.27		
STLMPGGVDVGPSVESY [SNF5]	1.63 ± 0.083	1.87 ± 0.083	2 ± 0.16	2.68 ± 0.087
DQSNVQYYLSVLNQQLP [BRR2]	2.96 ± 0.082	3.03 ± 0.072	3.02 ± 0.06	3.03 ± 0.06
EVEVSTRDLFDLEKDRA [RPO31]	3.07 ± 0.052	3.37 ± 0.061	3.28 ± 0.042	3.23 ± 0.048
VNASVDVDQHGNDNNSD [SWI3]	3.13 ± 0.085	3.46 ± 0.081	3.52 ± 0.059	3.3 ± 0.038
EIILKLCRNPLTSGLLY [YJL039C/NUP192]	2.21 ± 0.069	1.84 ± 0.07	1.22 ± 0.16	1.17 ± 0.046
KDLQENLLVLRGKNEII [RPO21]	1.31 ± 0.077	1.52 ± 0.056	1.6 ± 0.12	1.58 ± 0.071
DVKLVLASNFDNFDYFN [MED1]	3.17 ± 0.065	3.19 ± 0.068	3.2 ± 0.07	3.15 ± 0.056
NPTKSKEILDNILPFLW [ECM29]	2.26 ± 0.085	2.97 ± 0.1	2.8 ± 0.23	2.61 ± 0.085
SAVIIDEFKDITKEVTQ [YIL149C/MLP2]	2.76 ± 0.088	2.89 ± 0.059	2.39 ± 0.06	2.8 ± 0.068
IKIGIRVMKSLSINEKD [YCG1]	1.49 ± 0.087	1.61 ± 0.061	1.36 ± 0.2	1.56 ± 0.091
SQVKDSVTETESISQTP [SRP68]	2.92 ± 0.12	3.02 ± 0.11	3.22 ± 0.21	2.93 ± 0.084
GVTIEFSTNVKDEIVLS [RPL9A]	3.09 ± 0.23	3.33 ± 0.13	3.3 ± 0.088	3.18 ± 0.065
ARTIKATLPYIKQDIPI [RPB2]	2.73 ± 0.1	2.3 ± 0.061	2.26 ± 0.075	2.74 ± 0.072

Sequence	protein stability index (doa10∆)	protein stability index (pdr5∆)	protein stability index (san1∆)	protein stability index (ubr1∆)
FNYVQECPAIPIFNYIF [YJL039C/NUP192]	1.9 ± 0.072	1.75 ± 0.056	1.88 ± 0.082	1.85 ± 0.042
TQQPGTNSHYNNTNTDN [SNF2]	3.17 ± 0.046	3.26 ± 0.04	3.21 ± 0.036	3.204 ± 0.028
QFNAITGLNGSGKSNIL [SMC2]	3.31 ± 0.17	2.99 ± 0.13	3.18 ± 0.099	3.34 ± 0.067
AHAIDQMTWRQWLNNAL [POP8]	2.67 ± 0.065	2.6 ± 0.046	2.41 ± 0.055	2.58 ± 0.04
WLAEKFQKETNMKVTIL [PRP28]	2.81 ± 0.18	3.17 ± 0.11	3.27 ± 0.25	2.79 ± 0.11
SILPTRDDLFVRNLQGI [NUT1]	1.69 ± 0.094	2.19 ± 0.11	2.05 ± 0.15	1.56 ± 0.058
YQEDIFVSESPSFVKSG [ISW2]	2.85 ± 0.098	2.47 ± 0.077	2.48 ± 0.13	2.73 ± 0.045
DNMSEEQWLRQFEVSDD [SNF2]	3.46 ± 0.099	3.22 ± 0.094	3.16 ± 0.12	3.36 ± 0.079
SFQKNSLHNTEKIMENK [AAR2]	3.08 ± 0.057	3.22 ± 0.066	2.93 ± 0.042	2.96 ± 0.049
PSENLLNIRIQTYGETT [RPC19]	1.85 ± 0.27	1.18 ± 0.13		1.33 ± 0.26
QVLLDEEYKQLVKDRKF [RPO21]	3.07 ± 0.085	3.28 ± 0.06	3.15 ± 0.14	2.82 ± 0.1
ILEVGALASIQTFNFDS [RPN12]	2.31 ± 0.095	2.65 ± 0.18	2.96 ± 0.17	2.86 ± 0.077
PPETKLPYPTYWSDKKA [SNF5]	2.91 ± 0.085	2.82 ± 0.062	3.15 ± 0.056	2.86 ± 0.053
DILLNERVWNICLYSSF [AAR2]	1.91 ± 0.066	1.68 ± 0.064	1.55 ± 0.14	1.84 ± 0.04
AEKKIPLVIRRYLPDGS [RPO26]	2.79 ± 0.09	2.54 ± 0.12	3.45 ± 0.066	
IIESHLIQLQNIFKAEM [CSN9]	2.75 ± 0.1	3.14 ± 0.11	2.85 ± 0.088	2.74 ± 0.073
TRELAEEGYSGVEVRVT [RPS3]	2.4 ± 0.059	3 ± 0.073	2.67 ± 0.053	2.86 ± 0.04
HICGICGLMTVIAKLNH [RPB2]	1.65 ± 0.077	1.33 ± 0.08	1.23 ± 0.14	1.43 ± 0.066
RRISSMPGGYFHSEISP [YAR002W/NUP60]	2.27 ± 0.14	1.89 ± 0.11	2.96 ± 0.094	3.17 ± 0.14
FISSGTSLLDSLISVLE [YJL039C/NUP192]	2 ± 0.056	2.27 ± 0.052	2.17 ± 0.08	1.91 ± 0.047
CFSINDDPVPTPPAIEH [SSN2]	2.42 ± 0.25	2.1 ± 0.26		
LECQLFPQGLNIVMDSK [SSN8]	1.74 ± 0.2			2.46 ± 0.19
VLTRMDEDRSKKEEELG [SNF2]	3.51 ± 0.11	3.22 ± 0.1	3.38 ± 0.071	3.27 ± 0.084
FYGVLDQGNGWLYVYET [RPN6]	2.9 ± 0.095	2.65 ± 0.073	1.9 ± 0.095	3.02 ± 0.071
SKNMSKSPSLTAQKYPI [YMR153W/NUP53]	2.46 ± 0.051	2.46 ± 0.044	2.48 ± 0.055	2.51 ± 0.043
GSEIAISSLGYRSHIFA [SWI3]	2.63 ± 0.057	2.27 ± 0.048	2.45 ± 0.051	2.34 ± 0.045
